Data from article PMC4463452, “Olfactomedin-1 Has a V-shaped Disulfide-linked Tetrameric Structure*^([image sbox.jpg])” (The Journal of Biological Chemistry, 2015).

Molecular target: the molecule itself
Test: SEC-MALS; analytical Superdex200 5/150, room temperature, GF buffer (150 mM NaCl, 20 mM HEPES, pH 7.5); oligomeric state of the disulfide-linked assembly

B1: full-length Olfm1 (mouse olfactomedin-1, isoform 1, residues 17-478) (natural protein, UniProt O88998 17-478, looked up)
chain: MITNWMSQTLPSLVGLNTTRLSAASGGTLDRSTGVLPTNPEESWQVYSSAQDSEGRCICTVVAPQQTMCSRDARTKQLRQLLEKVQNMSQSIEVLDRRTQRDLQYVEKMENQMKGLETKFKQVEESHKQHLARQFKAIKAKMDELRPLIPVLEEYKADAKLVLQFKEEVQNLTSVLNELQEEIGAYDYDELQSRVSNLEERLRACMQKLACGKLTGISDPVTVKTSGSRFGSWMTDPLAPEGDNRVWYMDGYHNNRFVREYKSMVDFMNTDNFTSHRLPHPWSGTGQVVYNGSIYFNKFQSHIIIRFDLKTEAILKTRSLDYAGYNNMYHYAWGGHSDIDLMVDENGLWAVYATNQNAGNIVISKLDPVSLQILQTWNTSYPKRSAGEAFIICGTLYVTNGYSGGTKVHYAYQTNASTYEYIDIPFQNKYSHISMLDYNPKDRALYAWNNGHQTLYNVTLFH
modifications: N-linked glycans (eight predicted); interprotein disulfides
notes: the C-terminal VIRSDEL segment is not included; the native signal peptide is replaced by an N-terminal cystatin secretion signal of the vector pUPE107.03; also called noelin; pancortin; source: N-acetylglucosaminyltransferase I-deficient, EBNA1-expressing HEK293 cells, transient expression, secreted; purified (nickel-nitrilotriacetic acid, Superdex200 gel filtration); also unpurified in …
stoichiometry N: 4
